Reference: article PMC10413660, “Structural basis of purine nucleotide inhibition of human uncoupling protein 1” (Science Advances, 2023)

B1: human uncoupling protein 1 (UCP1) (natural protein, UniProt P25874 2-307, looked up)
chain: GGLTASDVHPTLGVQLFSAGIAACLADVITFPLDTAKVRLQVQGECPTSSVIRYKGVLGTITAVVKTEGRMKLYSGLPAGLQRQISSASLRIGLYDTVQEFLTAGKETAPSLGSKILAGLTTGGVAVFIGQPTEVVKVRLQAQSHLHGIKPRYTGTYNAYRIIATTEGLTGLWKGTTPNLMRSVIINCTELVTYDLMKEAFVKNNILADDVPCHLVSALIAGFCATAMSSPVDVVKTRFINSPPGQYKSVPNCAMKVFTNEGPTAFFKGLVPSFLRLGSWNVIMFVCFEQLKRELSKSRQTMDCAT
notes: wild-type human UCP1, UniProt P25874; the forward primer joins the His8 tag and Factor Xa site to codon 2 of UCP1, the reverse primer runs to the stop codon; also called SLC25A7; not shown: His8, N-terminal, cleaved

How the values were obtained:
Conditions in all cases: both partners purified
[1] = biological target: T1, Pro-macrobody PMb65 (nanobody CA9865 fused with maltose-binding protein via a Pro-Pro linker) (llama (Lama glama) | ); assay: cryo-EM structure; purified UCP1, PMb65 and PMb71 mixed stoichiometrically, overnight at 4°C, with 2 mM GTP and 2 mM D-maltose; 20 mM MES pH 6.0, 150 mM NaCl, 0.02% decyl maltose neopentyl glycol
T1 construct: nanobody CA9865; the structure with PMb65 is deposited as PDB 8G8W (only regions of PMb65 are modelled); Pro-Pro linker between nanobody and MBP; parts of it are removed from the deposited model; also called cytoplasmic Pro-macrobody; source: E. coli MC1061, purified (Ni-NTA, 3C cleavage, Strep-Tactin XT); not shown: MBP with deca-His tag, N-terminal, cleaved

[2] = biological target: T2, Pro-macrobody PMb71 (nanobody CA9871 fused with maltose-binding protein via a Pro-Pro linker) (llama (Lama glama) | ); assay: as above
T2 construct: nanobody CA9871; the structure with PMb71 is deposited as PDB 8G8W; Pro-Pro linker between nanobody and MBP; also called matrix Pro-macrobody; source: E. coli MC1061, purified (Ni-NTA, 3C cleavage, Strep-Tactin XT); not shown: MBP with deca-His tag, N-terminal, cleaved

[3] = biological target: B1; assay: thermostability shift assay (cysteine-reactive probe CPM); 5 μg purified human UCP1 with an equimolar amount of nanobody, with or without 1 mM GTP, 1 hour at 4°C; 25° to 90°C at 5.6°C/min

## B1
[1]
  binding result: binds
[2]
  binding result: binds

B2: nanobody CA9865 (VHH)
VHH: QVQLVESGGGLVQAGGSLRLSCAPSGRTSSTYTMGWFRQAPGKEREFVAAISWTGTPYYADSVKGRFTISRDNAKNTVYLQMNSLKPEDTAVYYCAAARPGLFIFVSDYARTAKYDYWGQGTQVTVPP
notes: the nanobody part of PMb65, whose structure is deposited as PDB 8G8W; phage display library in the pMESy4 vector; also called nanobody 65
[3]
  thermal stabilisation (shift of Tm): 5 °C

B3: nanobody CA9871 (VHH)
VHH: QVQLVESGGGLVQAGDSLRLSCAASGLTLKNYAMGWFRQAPGKEHEFVAVISWSGSGTSYADSVEGRFTISRDNAKNTAFLQMSSLKPEDTAVYYCAARDGGYGSRWPDEYTYWGQGTQVTVPP
notes: the nanobody part of PMb71, whose structure is deposited as PDB 8G8W; phage display library in the pMESy4 vector; also called nanobody 71
[3]
  thermal stabilisation (shift of Tm): 0.8 °C
